Source: patent publication US8697629B2, “Modulation of intracellular signaling” (Angstrom Pharmaceuticals, Inc., priority 2010, dated 2014)
“Also recorded” adds a separate entry of the source.

Tests used:
CD44 [1] = biological target: T1, CD44 (Homo sapiens, UniProt P16070); assay: Immunoprecipitation of Å6Cbiotin-crosslinked SKOV3 polypeptides, HRP-SA blotting; format: binding; conditions: SKOV3 cells, 100 μM Å6Cbiotin, BS3 crosslinking, DF1485 anti-CD44
T1 construct: endogenous in cells; host or cells: SKOV3 cells
Protocol: In FIGS. 1 and 2 SKOV3 cells were incubated with or without 100 μM Å6Cbiotin (Å6CbioXL and ConXL, respectively) for 30 min at 4° C. The cells were then crosslinked with 5 mM bis(sulfosuccinimidyl) suberate (Sulfo-DSS or BS^3) for 30 min at 4° C. and Triton X-100 lysates generated. The lysates were pre-cleared by incubating with Protein A-agarose for 2 hr at room temperature. Aliquots representing 100 μg of the cleared lysates were then incubated overnight at room temperature with 20 μL of Protein A-agarose plus 2 μg of anti-Tenascin R (TnR; E-18, Santa Cruz Biotech.), anti-Tenascin C (TnC; 300-3, Santa Cruz Biotech.), anti-CD44 (DF1485, Santa Cruz Biotech.), anti-Plexin-A1 (Pl A1; H-60, Santa Cruz Biotech.) or murine IgG1 (Sigma Chem. Co.). After washing 5 times with lysis buffer, the immunoprecipitated polypeptides were eluted from the Protein A-agarose by boiling in SDS-PAGE sample buffer. The eluted material and 2 μg aliquots of the starting material were then subjected to SDS-PAGE, transfer to PVDF membranes and blotting with chemiluminescent horseradish peroxidase (HRP)-conjugated streptavidin (HRP-SA).
In FIG. 3 SKOV3 cells were incubated with or without 100 μM Å6Cbiotin (Å6CbioXL and control, respectively) for 30 minutes at 4° C. The cells were then crosslinked with 5 mM BS3 for 30 min at 4° C. […]

SKOV3 cells = assay: Adhesion of SKOV3 cells to hyaluronic acid; format: cell-based; conditions: immobilized HA; 1 or 10 uM Å6; 20 ng/ml IM7
Protocol: (§1) In FIG. 11 SKOV3 cells were cultured overnight with or without 10 μM Å6 or 100 ng/ml PMA. The cells were then detached, washed and loaded with 20 μg/ml CFDA-SE for 30 min at 37° C. After washing, the cells were resuspended in PBS containing 10% FCS and triplicate aliquots representing 100,000 cells incubated for 30 min at room temperature with no additions, 1 or 10 uM Å6 or with 20 ng/ml IM7, a blocking anti-CD44 rat monoclonal antibody. The cells were then placed into microtiter wells that had been coated with 50 μL of 1 mg/mL HA overnight and blocked for 30 min with 10% FCS. The cells were allowed to adhere at room temperature for 30 minutes after which, the wells were decanted and washed 3 times. The fluorescence in each well was assessed (excit./emiss.: 460/536 nm) and the mean fluorescence values (+/standard deviation) of the triplicate determinations calculated.

A2780 cells [2] = assay: Adhesion of A2780 cells to hyaluronic acid; format: cell-based; conditions: immobilized HA; 1 or 10 μM Å6
Protocol: as §1, with “12 A2780” for “11 SKOV3”, “μM” for “uM”, “ul” for “μL”, “mg/ml” for “mg/mL”, “min” for “minutes”

A2780 cells [3] = assay: Boyden chamber chemotaxis of A2780 cells; format: cell-based; conditions: 10 ng/ml VEGF in NIH3T3-conditioned media, overnight
Protocol: A2780 (FIG. 10a) and SKOV3 (FIG. 10b) cells were incubated with the indicated concentrations of Å6 peptide for 30 min at 37° C. Aliquots representing 6,000 cells were placed on quadruplicate, CnI-coated filters (8 μm pores) in Boyden chambers and the cells allowed to migrate overnight in response to 10 ng/ml VEGF in NIH3T3-conditioned media containing the indicated concentrations of Å6. Upon completion of migration, the apical surfaces of the membranes were wiped clean and the migrating cells on the basal surface were stained with Geimsa stain and the cells present in representative fields of the membranes counted. Data represent the averages+/−standard deviations obtained from the replicate filters. […] This provides further confirmation that CD44 is the target for the Å6 peptide.

CD44 [4] = biological target: T1, CD44; assay: IM7 binding to SKOV3 cells, FACs analysis; format: cell-based; conditions: IM7 1 μg/ml, 4° C.
Protocol: In FIGS. 14a and 14b SKOV3 cells were incubated with the indicated concentrations of Å6 for 30 min at 4° C. IM7 (1 μg/ml) was then added and allowed to bind for 30 min at 4° C., after which the cells were washed and incubated with FITC-donkey anti-rat IgG for 30 min at 4° C. The cells were washed once and then subjected to FACs analysis.

CD44 [5] = biological target: T1, CD44; assay: FACs analysis of anti-CD44 (DF1485) binding to SKOV3 cells in the presence of Å6; format: cell-based; conditions: pre-incubation with Å6 10 or 30 min on ice
Protocol: In FIG. 4 SKOV3 cells were detached from their culture flasks by brief trypsinization, washed twice with DPBS and incubated on ice with the indicated concentrations of Å6 for 10 min (exp. 1) or 30 min (exp. 2). Anti-CD44 (DF1485; Santa Cruz Biotech.) or its isotype control were then added to final concentrations of 1 μg/ml (exp. 1) or 1 and 0.5 μg/ml (exp. 2) and the cells incubated for 1 hr on ice. The cells were washed once and incubated with FITC-conjugated donkey anti-mouse IgG (H+L) for 30 minutes on ice and then subjected to FACS analysis with a Beckman Coulter Epics XL-MCL cytofluorimeter. Data analysis was performed using the Coulter Epics software. Note: Data are presented as mean fluorescence intensities (MnI) obtained with the MnI of the negative control in each experiment adjusted to <0.5 during data collection. […] Similar CD44 expression in ovarian cancer lines using different anti-CD44 antibodies is assessed in FIG. 5, for which the MnI values are summarized in FIG. 6.

T1 sequence (P16070 21-742): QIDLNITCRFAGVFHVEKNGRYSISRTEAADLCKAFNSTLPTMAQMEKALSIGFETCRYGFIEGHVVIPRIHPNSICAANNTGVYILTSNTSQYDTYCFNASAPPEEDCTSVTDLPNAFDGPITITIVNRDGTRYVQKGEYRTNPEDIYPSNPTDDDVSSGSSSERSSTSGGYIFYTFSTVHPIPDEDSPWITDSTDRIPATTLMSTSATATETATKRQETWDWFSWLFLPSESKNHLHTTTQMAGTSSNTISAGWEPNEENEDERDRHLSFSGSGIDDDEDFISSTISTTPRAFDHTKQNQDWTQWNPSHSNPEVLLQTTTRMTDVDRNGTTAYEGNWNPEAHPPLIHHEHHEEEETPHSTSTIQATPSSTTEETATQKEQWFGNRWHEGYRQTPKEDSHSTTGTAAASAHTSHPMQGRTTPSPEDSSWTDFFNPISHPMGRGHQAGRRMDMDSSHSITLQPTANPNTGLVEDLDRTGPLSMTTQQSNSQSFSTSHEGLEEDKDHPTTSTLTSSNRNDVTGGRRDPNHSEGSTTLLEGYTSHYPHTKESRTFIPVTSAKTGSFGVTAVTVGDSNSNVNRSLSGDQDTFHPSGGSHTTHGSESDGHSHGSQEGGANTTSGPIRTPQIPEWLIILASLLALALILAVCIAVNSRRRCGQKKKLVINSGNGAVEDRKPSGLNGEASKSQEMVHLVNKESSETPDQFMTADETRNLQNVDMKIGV

Q: “acetyl-Lys-Pro-Ser-Ser-Pro-Pro-Glu-Glu-NH2 (Ac-KPSSPPEE-NH2) [Å6]” was tested. Which “target of the peptide identified by anti-CD44 immunoprecipitation” value (CD44 [1]) did it give?
A: targets CD44; also recorded: confirm CD44 as the target

Q: And the “SKOV3 binding to HA” value (SKOV3 cells)?
A: enhanced

Q: And the “binding of A2780 cells to HA” value (A2780 cells [2])?
A: does not substantially modulate

Q: And the “migration of A2780” value (A2780 cells [3])?
A: essentially unaffected

Q: And the “IM7 antibody binding to SKOV3 cells” value (CD44 [4])?
A: increase in antibody binding with increasing concentration

Q: And the “binding of DF1485 anti-CD44 to SKOV3 cells (MnI)” value (CD44 [5])?
A: inhibits the binding of DF1485 anti-CD44 to SKOV3 cells
